# According to PMC4072462:
# Target: FabR_vc (N-terminal His6) (Vibrio cholerae, UniProt Q9KVJ2 1-213)
# Assay: EMSA
binder,measurement,value
fabAec B+D (dsDNA) DNA 1: TTTATTCCGAACTGATCGGACTTGTTCAGCGTACACGTGTTAGCTATCCTGCGTGC DNA 2: GCACGCAGGATAGCTAACACGTGTACGCTGAACAAGTCCGATCAGTTCGGAATAAA,binding result,binds
fabBec B+D (dsDNA) DNA 1: TCTATTAAATGGCTGATCGGACTTGTTCGGCGTACAAGTGTACGCTATTGTGCATTC DNA 2: GAATGCACAATAGCGTACACTTGTACGCCGAACAAGTCCGATCAGCCATTTAATAGA,binding result,binds
